Source: the Human Domainome abundance scans (Beltran et al. 2025)

B1: Intersectin-1, residues 1156 to 1213; numbered along this chain, Q15811 (parent)
chain: AVCQVIGMYDYTAQNDDELAFNKGQIINVLNKEDPDWWKGEVNGQVGLFPSNYVKLTT

Variants of: B1
Experiment: abundance fitness (aPCA) (normalised: wild type 0, dead -1); higher = more abundant; growth selection in yeast, the domain comes from the species named
Conditions: Homo sapiens

Abundance fitness, by site and new letter:
G24: D -0.579; T -0.599; A -0.854; S -0.524; P -0.825; M -0.693; K -0.571; F -0.739; V -0.895; Q -0.44; I -0.682; E -0.895; W -0.528; N -0.348
N22: W -0.466; C 0.128; E 0.174; A 0.157; Y -0.422; S 0.009; K -0.027; M 0.02; I -0.286; G -0.006; V -0.06; L -0.285; D 0.164; P -0.062; F -0.432
F21: Q -1.13; A -0.913; E -0.745; Y -1.06; L -0.687; R -0.686; H -0.724; W -0.718; K -0.527; G -0.772; I -0.266; T -0.985; M -0.643; P -1.06; S -0.927; D -0.656; C -1.01; V 0.013
D17: K -0.099; F -0.359; H -0.298; L -0.125; Y -0.359; S 0.126; N 0.147; G 0.101; T -0.119; M -0.048; P -0.592; I -0.419; V -0.473; Q -0.082; R 0.014
A20: E -0.149; Q 0.092; W -0.415; Y -0.662; K -0.236; F -0.673; C -0.152; M -0.545; T 0.127; D -0.286; I -0.793; G 0.1; S -0.079; L -0.796; H -0.268; P -0.123; R -0.292; N -0.484
I26: P -0.561; Q -0.304; E -0.278; C -0.149; T 0.163; W -0.505; R -0.131; F -0.523; L 0.18; M -0.462; S -0.554; K -0.084; D -0.807; G -0.857; A -0.237; H -0.332; V 0.297
L19: D -0.776; H -0.858; I -0.357; A -0.9; N -0.7; Y -1.04; Q -0.869; R -0.764; E -0.523; T -0.648; V -0.281; G -0.726; F -0.733; W -0.838; P -0.806; K -0.908; S -0.848; C -0.599
I27: F -0.805; N -0.765; P -0.612; G -0.746; M -0.696; H -0.748; E -0.811; K -0.81; L -0.373; Q -1.05; R -0.85; D -0.695; A -0.789; S -0.915
E18: W -0.905; I -0.853; R -0.819; P -0.919; Q 0.036; Y -0.254; S -0.397; N -0.954; G -0.317; H -0.208; F -0.466; K -0.439; L -0.745; M -0.696; D -0.263; C -0.309; A -0.646; V -0.722; T -0.908
K23: V -0.21; L -0.77; E -0.011; D -0.859; S -0.214; Q -0.043; Y -0.673; P -0.921; M -0.487; R 0.137; N -0.494; A 0.215; W -0.852; T 0.065; H -0.298; I -0.849; G -0.701; C -0.275; F -0.613
